This note sets out measurements from US20240376225A1 (CHILDREN S MEDICAL CENTER, published 2024).

As usually defined, the Kd is the concentration at which binding is half-saturated. Read a low Kd as higher affinity. By IC50 is commonly meant the concentration at which inhibition is half-maximal. As a reminder, the EC50 is the concentration giving half of the maximal effect.

B1: Ab423 (antibody, human IgG1, kappa, V domains shown)
VH: QVQLVQSGAEVKKPGSSVKVSCKASGGTFSSYAISWVRQAPGQGLEWMGRIIPILGIANYAQKFQGRVTITADKSTSTAYMELSSLRSEDTAVYYCAREDDISGYYQDWGQGTLVTVSS
VL: EIVMTQSPATLSVSPGERATLSCRAGQSINSYLAWYQQKPGQAPRLLIYDASTRATGIPARFSGSGSGTEFTLTISSLQSEDFAVYYCQQYEYWYTFGQGTKLEIKR
notes: IgG1
B2: Ab422 (antibody, human IgG1, kappa, V domains shown)
VH: B1 VH with T28E, F29L, S30Q, S31T, Y32L
VL: B1 VL
notes: IgG1
B3: Ab424 (antibody, human IgG1, kappa, V domains shown)
VH: B1 VH with S31T
VL: B1 VL
notes: IgG1
B4: Ab420 (antibody, human IgG1, kappa, V domains shown)
VH: B1 VH
VL: B1 VL with Y32H
notes: IgG1
B5: Ab421 (antibody, human IgG1, kappa, V domains shown)
VH: B1 VH with S31T
VL: B1 VL with Y32H
notes: IgG1
B6: Ab204 (antibody, human IgG1, kappa, V domains shown)
VH: B1 VH with T28E, F29L, S30Q, S31D, Y32L
VL: B1 VL with Y32H
notes: full-length human IgG1
B7: Ab194 (antibody, human IgG1, kappa, V domains shown)
VH: B1 VH with S31T, I102S
VL: B1 VL
notes: full-length human IgG1
B8: Ab648 (antibody, human IgG1, kappa, V domains shown)
VH: B1 VH with T28E, F29L, S31T, D100E
VL: B1 VL with N30S, T53S, T96S
notes: IgG1
B9: Ab646 (antibody, human IgG1, kappa, V domains shown)
VH: B1 VH with T28E, F29L, S30Q, S31T, Y32L, D100E
VL: B1 VL with N30S, T53S, T96S
notes: IgG1
B10: Ab89 (antibody, human IgG1, kappa, V domains shown)
VH: B1 VH with I102S
VL: B1 VL with Y32H
notes: IgG1; also called germlined derivative of Ab15

Residue numbers refer to the chain shown, from its start.

For the first assay, the target named is T1, human CD21 on Raji B cells or primary B cells (human, UniProt P20023 21-1033).
T1 sequence (looked up): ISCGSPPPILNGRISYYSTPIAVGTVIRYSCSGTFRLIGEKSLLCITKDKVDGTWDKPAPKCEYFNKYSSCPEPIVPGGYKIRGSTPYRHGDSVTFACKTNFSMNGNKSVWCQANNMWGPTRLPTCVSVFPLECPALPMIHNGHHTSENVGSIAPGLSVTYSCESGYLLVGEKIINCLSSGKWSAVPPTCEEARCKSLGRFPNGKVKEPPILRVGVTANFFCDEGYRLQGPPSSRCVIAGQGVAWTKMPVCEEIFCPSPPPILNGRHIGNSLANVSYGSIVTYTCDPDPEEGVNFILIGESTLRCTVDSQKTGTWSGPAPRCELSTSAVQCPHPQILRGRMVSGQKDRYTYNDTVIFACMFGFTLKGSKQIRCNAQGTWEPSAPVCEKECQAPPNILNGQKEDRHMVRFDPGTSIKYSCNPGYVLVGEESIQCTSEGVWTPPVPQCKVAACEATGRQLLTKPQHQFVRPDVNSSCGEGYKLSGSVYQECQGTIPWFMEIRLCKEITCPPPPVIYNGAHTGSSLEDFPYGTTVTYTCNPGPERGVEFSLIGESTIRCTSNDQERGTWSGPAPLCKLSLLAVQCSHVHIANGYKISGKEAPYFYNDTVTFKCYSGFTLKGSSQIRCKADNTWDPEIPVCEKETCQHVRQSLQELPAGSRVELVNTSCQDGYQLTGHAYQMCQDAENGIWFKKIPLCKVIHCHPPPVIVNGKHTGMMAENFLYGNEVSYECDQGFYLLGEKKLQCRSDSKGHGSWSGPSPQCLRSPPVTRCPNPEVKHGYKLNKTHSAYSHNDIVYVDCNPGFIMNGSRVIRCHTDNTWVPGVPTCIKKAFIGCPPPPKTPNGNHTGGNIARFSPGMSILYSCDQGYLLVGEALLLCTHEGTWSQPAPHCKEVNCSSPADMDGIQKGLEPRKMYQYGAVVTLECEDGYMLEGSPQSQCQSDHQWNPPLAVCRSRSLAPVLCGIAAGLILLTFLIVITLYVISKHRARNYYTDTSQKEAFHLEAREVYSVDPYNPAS
As to the kind of experiment: cell-based or functional assay.
On to B1, for which the “pAKT inhibition, IC50, nM; Primary B cells” value came out at 7.94 nM and the “pAKT inhibition, IC50, nM; Raji B cells” value amounted to 14.9 nM.
For B2, the “pAKT inhibition, IC50, nM; Primary B cells” value was found to be 9.98 nM and the “pAKT inhibition, IC50, nM; Raji B cells” value turned out to be 15.8 nM.
On the same counts, the results for B3 are 11.6 nM and 9.38 nM.
For B4, the “pAKT inhibition, IC50, nM; Primary B cells” value came out at 61.1 nM and the “pAKT inhibition, IC50, nM; Raji B cells” value was 26.2 nM.
For B5, in that order: 56.2 nM and 8.59 nM.

A further assay addresses T2, human CD21 protein (human, UniProt P20023 21-971, limits assumed).
T2 construct: the Biacore set-up is not described; also called huCD21; CR2
T2 sequence (looked up): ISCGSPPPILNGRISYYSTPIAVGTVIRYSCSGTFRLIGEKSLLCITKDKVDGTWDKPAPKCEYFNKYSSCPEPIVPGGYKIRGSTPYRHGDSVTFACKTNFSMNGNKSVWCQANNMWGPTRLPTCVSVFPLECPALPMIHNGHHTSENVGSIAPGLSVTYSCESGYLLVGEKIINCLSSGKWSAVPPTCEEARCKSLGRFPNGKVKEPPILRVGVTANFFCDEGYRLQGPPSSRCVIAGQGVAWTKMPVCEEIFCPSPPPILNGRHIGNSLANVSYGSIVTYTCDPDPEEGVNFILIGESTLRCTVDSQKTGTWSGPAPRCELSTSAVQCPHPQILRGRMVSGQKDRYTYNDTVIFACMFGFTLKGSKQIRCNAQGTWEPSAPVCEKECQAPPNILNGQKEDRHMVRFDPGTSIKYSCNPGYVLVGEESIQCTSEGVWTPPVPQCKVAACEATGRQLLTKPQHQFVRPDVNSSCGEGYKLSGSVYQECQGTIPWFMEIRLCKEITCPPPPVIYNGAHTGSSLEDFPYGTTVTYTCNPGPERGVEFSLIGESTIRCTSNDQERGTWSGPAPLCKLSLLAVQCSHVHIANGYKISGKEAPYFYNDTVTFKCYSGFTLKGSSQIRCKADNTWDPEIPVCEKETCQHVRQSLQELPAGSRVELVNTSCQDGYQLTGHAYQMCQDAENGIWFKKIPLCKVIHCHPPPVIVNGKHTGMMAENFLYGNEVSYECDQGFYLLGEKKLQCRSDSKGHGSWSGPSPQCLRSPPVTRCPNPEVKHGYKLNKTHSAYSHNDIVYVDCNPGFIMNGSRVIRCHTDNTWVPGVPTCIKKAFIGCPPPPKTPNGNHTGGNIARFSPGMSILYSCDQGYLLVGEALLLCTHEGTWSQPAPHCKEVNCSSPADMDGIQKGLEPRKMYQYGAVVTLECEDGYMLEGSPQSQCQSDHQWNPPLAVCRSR
The assay can be described thus: SPR (Biacore), KD against Ab89.
On to B1, for which the “fold affinity improvement over parental Ab89” value came to 1780 fold.
As to B6, the “fold improvement of affinity over Ab89” value is about 81 fold.
Same read-out and setting: for B7 the value was about 81 fold.

For the next assay, the target named is T2, human CD21 protein. The assay can be described thus: SPR (Biacore). (In general: SPR reads the build-up and loss of mass on a sensor chip optically.)
B1: the Kd was 0.039 nM.
B2 had a Kd of 0.04 nM.
The same measure, in the same setting: under B3 stands 0.05 nM; under B4, 2.26 nM.
The same measure, in the same setting: for B5 the value was 2.26 nM.

Another assay has as its target cyno CD21 protein (cynomolgus monkey). The assay can be described thus: SPR (Biacore).
B1: the Kd is 0.23 nM.
The same measure, in the same setting: under B2 stands 0.24 nM; under B3, 0.03 nM.
In turn, B4 came in with a dissociation constant Kd of 0.22 nM.
The molecule B5 showed a Kd of 0.25 nM.

Another assay shares this target. As to the kind of experiment: affinity KD; method not restated (Biacore elsewhere).
Turning to B1, the Kd was determined as 0.23 nM.
The molecule B8 had a Kd of 0.15 nM.
For B9, the Kd came to 0.05 nM.
Still for that read-out and setting: under B2 stands 0.24 nM.
The same measure, in the same setting: for B3 the value was 0.03 nM; for B4, 0.22 nM.
On the same count and under the same terms, for B5 the value was 0.25 nM.

The next assay deals with T2, human CD21 protein. Described as above.
Molecule B8 gave a Kd of 0.01 nM.
The molecule B9 showed a Kd of 0.01 nM.

The target of the next assay is T1, human CD21 on Raji B cells or primary B …. The assay can be described thus: competition with human C3d on Raji B cells.
In the case of B10, the half-inhibitory concentration (IC50) stood at 2.13 nM.
On the same count and under the same terms, for B6 the value was 0.005 nM.
The same measure, in the same setting: for B7 the value was 0.009 nM.

For the next assay the target is unchanged. The assay can be described thus: competition with human C3d on primary B cells.
Molecule B10 displayed a half-inhibitory concentration (IC50) of 1.22 nM.
Turning to B6, the IC50 stood at 0.007 nM.
Same read-out and setting: under B7 stands 0.006 nM.

The target of a further assay is T2, human CD21 protein. As to the kind of experiment: SPR (Biacore). The source holds these as a separate data set.
B1 yielded a Kd of 0.0399 nM.

Another assay concerns the target cyno CD21 protein (cynomolgus monkey). The assay can be described thus: SPR (Biacore), KD against Ab89.
As to B1, the fold affinity improvement over parental Ab89 worked out at 92 fold.
With B6, the fold improvement of KD over Ab89 is 357 fold.
The same measure, in the same setting: for B7 the value was 2 fold.

For another assay, the target named is T2, human CD21 protein. The assay can be described thus: SPR (Biacore). This is another data set of the same source.
B10 displayed a Kd of 71.1 nM.
On the same count and under the same terms, for B6 the value was 0.81 nM; for B7, 0.81 nM.

For another assay, the target named is T1, human CD21 on Raji B cells or primary B …. As to the kind of experiment: cell-based or functional assay. The source holds these as a separate data set.
On to B1, for which the “pAKT inhibition, IC50, nM; Primary B cells” value is 7.94 nM and the “pAKT inhibition, IC50, nM; Raji B cells” value amounted to 14.9 nM.
For B2, in that order: 9.98 nM and 15.8 nM.
On the same counts, the results for B3 are 11.6 nM and 9.38 nM.
For B4, in that order: 61.1 nM and 26.2 nM.
As for B5, the “pAKT inhibition, IC50, nM; Primary B cells” value came to 56.2 nM and the “pAKT inhibition, IC50, nM; Raji B cells” value was 8.59 nM.

Another assay concerns the target cyno CD21 protein (cynomolgus monkey). The assay can be described thus: SPR (Biacore). This is another data set of the same source.
The molecule B1 had a Kd of 0.233 nM.
Turning to B10, the Kd turned out to be 21.4 nM.
Same read-out and setting: under B6 stands 0.06 nM; under B7, 9.16 nM.

The next assay concerns the target T2, human CD21 protein. The assay can be described thus: affinity KD; method not restated (Biacore elsewhere). This is another data set of the same source.
Molecule B1 yielded a Kd of 0.039 nM.
Molecule B8 displayed an equilibrium dissociation constant (Kd) of 0.01 nM.
Molecule B9 returned a Kd of 0.01 nM.
The same measure, in the same setting: for B2 the value was 0.04 nM.
Still for that read-out and setting: under B3 stands 0.05 nM.
The same measure, in the same setting: for B4 the value was 2.26 nM.
The molecule B5 yielded a Kd of 2.26 nM.

The target of another assay is T1, human CD21 on Raji B cells or primary B …. The assay can be described thus: Raji B cell binding.
The molecule B10 came in with an EC50 of 6.37 nM.

The target of the next assay is insulin (UniProt P01308). As to the kind of experiment: polyreactivity ELISA on coated insulin; third number of the cell. In general terms: An ELISA detects its analyte on a solid surface through an enzyme-linked reagent.
Chain of insulin (P01308 25-54 limits assumed, chain 1 of 2): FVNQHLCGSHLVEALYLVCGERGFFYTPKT
Chain of insulin (P01308 90-110 limits assumed, chain 2 of 2): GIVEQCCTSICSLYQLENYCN
With B1, the insulin-binding score (ratio to buffer well) came to 2.
On to B8, for which the insulin-binding score (ratio to buffer well) is 1.
Take B9: the insulin-binding score (ratio to buffer well) is 1.
On the same count and under the same terms, for B2 the value was 2; for B3, 2.
In the case of B4, the insulin-binding score (ratio to buffer well) amounted to 2.
Same read-out and setting: for B5 the value was 2.
